# Assay results published in patent US20230028090, “Method Of Using Aptamer For Detecting Glycated Hemoglobin In Whole Blood And Nanoelectronic Aptasensor” (National Taiwan University, published 2023).
# Target: Glycated hemoglobin HbA1c (Homo sapiens, UniProt P69905;P68871 P69905:2-142,P68871:2-147)
# Assay: detection range by PEG:AptGP silicon nanowire FET in 1x PBS; hemolytic blood also detected, serum control response <10%
# Conditions: also hemolytic whole blood samples; chain copies: 2
# Experimental: Prior to the surface modification, an SiNW-FET was washed with ethanol and cleaned with oxygen plasma (25 W, 50 sccm, 60 s). The SiNW-FET device was then incubated for 15 min in an ethanol solution (1% v/v) containing an optimal ratio of MPTMS, PTMS, and PEG-silane, of which the ethanol solution was also mixed with 16.7 mM DTT to reduce the possible disulfide linkages among the thiol groups of MPTMS. Next, this silane-based SAM-modified device was rinsed with ethanol, dried under N₂, and heated at 100° C. for 15 min. Finally, the silane-based SAM-modified device was incubated in 1×PBS containing 1 μM AptGP and 16.7 mM DTT for 1 hr, where AptGP (with the 5′-SH) was immobilized to MPTMS via a disulfide bond to form a PEG:AptGP/SiNW-FET aptasensor.
# We show a representative example of measuring HbA1c in the blood sample of Subject 1 by PEG:AptGP/SiNW-FET. Before detecting HbA1c in a lysed-blood sample, a PEG:AptGP/SiNW-FET aptasensor was calibrated by recording the transfer curves corresponding to various concentrations of HbA1c (CHbA1c=0-1.2 μM in 1×PBS), as shown in FIG. 14. […] By comparison, we also detected HbA1c in serum as a control test (with the transfer curves measured in the lower panel of FIG. 16 and the corresponding electrical responses presented in FIG. 17), where the serum was isolated from the tested blood sample by centrifugation.
# Sequence of Glycated hemoglobin HbA1c (P69905 2-142, chain 1 of 2): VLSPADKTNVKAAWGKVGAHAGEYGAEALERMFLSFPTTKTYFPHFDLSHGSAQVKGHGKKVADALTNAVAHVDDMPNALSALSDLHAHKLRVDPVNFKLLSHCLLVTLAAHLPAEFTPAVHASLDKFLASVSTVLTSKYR
# Sequence of Glycated hemoglobin HbA1c (P68871 2-147, chain 2 of 2): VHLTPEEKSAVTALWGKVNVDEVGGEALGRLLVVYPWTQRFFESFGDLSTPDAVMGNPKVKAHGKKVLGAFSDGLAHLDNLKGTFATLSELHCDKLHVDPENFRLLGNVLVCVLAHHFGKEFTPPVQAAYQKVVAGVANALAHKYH
binder,measurement,value
"GGTGAGTTAAGGAATCAGCGGCTCAGACGACCCGACGCAC (ssDNA, end-modified for disulfide conjugation to MPTMS on silicon nanowire) [AptGP (Aptamer A)]",binding result,binds
